Source: the supplement of paper PMC9170038

System: K4 kissing-loop RNA reporter
Assay: apparent KD of K4 kissing-loop reporter; higher = weaker reporter binding
Conditions: Eterna round: R107
Description: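 RNA-MaP round R107: designed RNA switches with theophylline, tryptophan, arginine or FMN aptamers are transcribed on-chip within common flanks. They are titrated with a labelled K4 kissing-loop RNA reporter in RNA-MaP buffer (100 mM Tris pH 7.5, 80 mM KCl, 4 mM MgCl2), without ligand or with the indicated ligand. Median apparent KD per design.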

[1] = input ligand: theophylline 20 uM
[2] = input ligand: tryptophan 2.4 mM
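Also: bound reporter read as fluorescence of individual clusters on recovered sequencing chips by microscopy, with normalized cluster intensities fitted with a binding model.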

| Sequence | apparent KD of K4 kissing-loop reporter (input ligand: FMN 200 uM) [nM] | apparent KD of K4 kissing-loop reporter (input ligand: arginine 13.2 mM) [nM] | apparent KD of K4 kissing-loop reporter (input ligand: none) [nM] | apparent KD of K4 kissing-loop reporter [1] [nM] | apparent KD of K4 kissing-loop reporter [2] [nM] |
| --- | --- | --- | --- | --- | --- |
| GCAGUGAUGUUGCACGAGUAGGGUAGAGUGCGAGGACCGGUACGGCCGCCACUCGUAUGGAACUCGCUAAUUUAUGGAAUGGUGA [whbob_SS_tryp_A] | 791 | 828 | 1020 | 920 | 575 |
| GCAGUGAUGUUGCGGAUGUACAGUGGCGUGCGAGGACCGGUACGGCCGCCACUCGUACAGAGCGAGCUAAUACAUCGAUAGGUGA [whbob_SS_Tryp_A_m5] | 230 | 212 | 236 | 288 | 241 |
| GCAUCCAUGGCAGGAUAUAGGUUCAUGGAGUGAUGUUCCAUAACCCGAGUGAUGUUCGUUAUCCACCUAGAAGGGCCAUGGAUGC | 208 | 173 | 206 | 196 | 180 |
| GCCCGAAAGGGCCGAAGUGUUUGCGGCGAUCGAGGACCGGUACGGCCGCCACUCGUCGAGGCGUUCAGUGAUGUUGAAAGCAUGA | 250 | 257 | 215 | 266 | 480 |
| GCCCGAAAGGGCCGAUGUGUUUGCGGCGAUCGAGGACCGGUACGGCCGCCACUCGUCGAGGCGUUCAGUGAUGUUGAAAGCAUUA | 334 | 279 | 352 | 354 | 626 |
| GCCGUACGCACGGAUACCAGCACUCGGUGAGUGAUGUUCACGGUGUGGUAUUCAUCGGGCUGCCCUUGGCAGCCGUGCGUACGGC | 153 | 93.6 | 101 | 129 | 107 |
| GCCGUACGCACGGAUACCAGCACUCGUUGAGUGAUGUUCACGGUGUGGUAUUCAACGGGCUGCCCUUGGCAGCCGUGCGUACGGC | 135 | 91.2 | 134 | 139 | 144 |
| GCCGUACGCAUGGAUACCAGCGCUCGUCACCUAGCAGUGAUGUUGCUAAUGCCACGAGGACGCCCUUGGCAGCCAUGCGUACGGC | 116 | 101 | 102 | 83.3 | 107 |
| GCCGUACGCAUGGAUACCAGCUACUAGAGUGAUGUUCUAUGGCCCUGCCAAUGGAGCUGUAGCCCUUGGCAGCCAUGCGUACGGC | 130 | 125 | 105 | 122 | 126 |
| GCCGUACGCAUGGAUACCAGCUUGUCCGAGUGAUGUUCGGGUCUGAAUGCCGGUAAUAAGAGCCCUUGGCAGCCAUGCGUACGGC | 137 | 104 | 124 | 117 | 123 |
| GCCGUACGCAUGGAUACCAGUCAAGAUCAGUGAUGUUGAUCUUUUAUAGAGCCUUCAUUAGACCCUUGGCAGCCAUGCGUACGGC | 429 | 237 | 391 | 373 | 250 |
| GCCGUAGAUCGAAGGAGCGUGCAAGAAUCGUAGUGAUGUUACGGAGAGUGUCACGCCGUCGCACAGGUAGGUCGCGAUCUACGGC | 71 | 76.4 | 84.1 | 69.2 | 66.8 |
| GCCGUAGAUGGAAGGAGCGUGAAUGGCCUCUAUCCAAAGUGAUGUUUUGUUGAAGACUGUUCACAGGUAGGUCGCCAUCUACGGC | 165 | 125 | 135 | 135 | 140 |
| GCCGUAGAUGGAAGGAGCGUGUCAAAGUGAUGUUUUGAUUAACUCCCUUAGGGAAAGAUGGCACAGGUAGGUCGCCAUCUACGGC | 104 | 74.2 | 102 | 131 | 90.4 |
| GCCGUAGAUUGAAGGAGCGCCUUCUUACCAAGAGUGAUGUUCUUAGGUACCAUGUUCAGUAGGCAGGUAGGUCGCAAUCUACGGC | 499 | 441 | 484 | 647 | 489 |
| GCCGUAGAUUGAAGGAGCGUGGAACUAUGGCUUGAACAGUGAUGUUGUUUAUCUAGGUAGCCACAGGUAGGUCGCAAUCUACGGC | 266 | 201 | 234 | 182 | 178 |
| GCCUACGAUGCAGGAUAUAGCUCGCGAGUGAUGUUCGCAGCUGUAUGGUAGUAAACUUCCACGUGUCUAGAAGGGCAUCGUAGGC | 111 | 79.7 | 91.6 | 80 | 90.7 |
| GCCUAGCAGGGAAGGAGCGCCAUAUAAUUAAAAGGUAAUUAAUGAGUGAUGUUCAAAUAAUGGCAGGUAGGUCGCCCUGCUAGGC [KL-SSArg B10] | 316 | 277 | 283 | 354 | 283 |
| GCGAACAUUCGCAGUGAUGUUGCGACGGAAGGAGCGCGUGAAAACGCAGGUAGGUCGCCGACAUACUUAAUUUUACAGUGUUCGC [Arginine A K4 29] | 268 | 191 | 294 | 247 | 194 |
| GCGCGCGUUUUAGAUACCAGCCAGUGAUGUUGGCGAGGAUUCUGGAGCGUAGUGUCAAAUGGCCCUUGGCAGCUAACACGCGGCU [Zabea] | 117 | 108 | 119 | 134 | 123 |
| GCGCGGGAGUGAUGUUCCAAGUGGUGUUAACGAGGACCGGUACGGCCGCCACUCGAUACGGCCGGGCCGUAGGAUAAACUGGCGC [Same State - Tryptophan A (Freestyle 14)] | 405 | 376 | 441 | 318 | 408 |
| GCGCGGGAGUGAUGUUCCAAGUGGUGUUAACGAGGACCGGUACGGCCGCCACUCGUUACGGCCGGGCCGUAGGAUACACUGGCGC [Same State - Tryptophan A (Freestyle 16)] | 168 | 242 | 274 | 471 | 415 |
| GCGCGUCAUGUCAGCGGUGACACUGUCGAUACCAGCGCCGCAAGGCGCCCUUGGCAGCGACGCGCUGGAGUGAUGUUCCAGCGUG [#2 Exclusion - Theophylline A Attempt #14 (HarryS)] | 154 | 148 | 164 | 143 | 169 |

| Sequence | apparent KD of K4 kissing-loop reporter (input ligand: FMN 200 uM) [nM] | apparent KD of K4 kissing-loop reporter (input ligand: arginine 13.2 mM) [nM] | apparent KD of K4 kissing-loop reporter (input ligand: none) [nM] | apparent KD of K4 kissing-loop reporter [1] [nM] | apparent KD of K4 kissing-loop reporter [2] [nM] |
| --- | --- | --- | --- | --- | --- |
| GCGCGUCAUGUCAGCGGUGCCUAUGUCGAUACCAGCGCCGCAAGGCGCCCUUGGCAGCGACGCGCUGGAGUGAUGUUCCAGCGUG [#2 Exclusion - Theophylline A Attempt #11 (HarryS)] | 148 | 127 | 153 | 138 | 132 |
| GCGUAUGAUGCUCAAAGAGUAUCUCCCGAUACCAGUAUGGAAACAUACCCUUGGCAGCGGGUAACUGCCCAGUGAUGUUGGACGC [Theophylline A K4 9] | 430 | 253 | 351 | 394 | 326 |
| GCUACCUAUGCAGGAUAUGGUAUUACGAGUGAUGUUCGAGGCGAAUAGAGUGAUGUUCUAUUUCCACCAGAAGGGCAUAGGUAGC | 143 | 97.1 | 125 | 136 | 124 |
| GCUAUGGUAGGAAGGAGCGCGGACGAUAUUUAUCGAGUGAUGUUCGAUUAAUUAAUUUUAACGCAGGUAGGUCGCCUACUAUAGC [Arginine B K4 28] | 135 | 82.2 | 105 | 88.2 | 106 |
| GGAACUACGACGGCCGCCACUCUGUAUCCCAACGUUAAGGUCCUAACUGCAAGUGAUGUUUGUGCGAGGACCGGGUCUCCCUUGC [theeternabot_exclusion_KL_Trp_B_30] | 258 | 213 | 272 | 218 | 217 |
| GGACGACAGUCGGCCGCCACUCACAGCAGCCAGUGAUGUUGGAUUGUAGCGGAGUGAUGUUUCGCGAGGACCGGGACUGCAGUCC [Same State Tryptophan B GF 14] | 190 | 171 | 227 | 226 | 199 |
| GGACUCAAAUGUAGUGAUGUUACAAGCGAUACCAGUAUCUAACAUUACCCUUGGCAGCGCGCCCAGCUCAGCAAAUUAGAUAGCG [theeternabot_sameState_KL_Theo_A_43] | 149 | 204 | 178 | 268 | 114 |
| GGAGGGAUCUCGGCCGCCACUCAUAAGAAAUGGGCCUCAGGGAUAUAGUGAUGUUAUGUAAAGAAGAGGACCGGGAGAAAGAAGG [ExTryptoB.Dc] | 263 | 245 | 248 | 348 | 175 |
| GGAGUUACCUGGGAUACCAGUCGGAGUCUCAGAGCACAGAGUGAUGUUCUGGGAUGUUUCGGCCCUUGGCAGCUCUGGGACUCCA [#2 Exclusion - Theophylline B Attempt #14 (HarryS)] | 386 | 359 | 403 | 265 | 351 |
| GGAUAGGACAAAGGAUAUGGGCUAGGCAAGAAUAACUUGUCUAGCAAAUCCAUGAGGAGUGAUGUUCCAGAAGGUUGUCCUAUCG [FmnBX 1 A11+U75] | 624 | 116 | 122 | 127 | 107 |
| GGAUAGGACAGAGGAUAUCCUAAAGAGGCAAGAAUAACUUGUCUCAAAUGGAUGACCAGUGAUGUUGGAGAAGGCUGUCCUAUCG [FmnBX 6 - #SwitchBubble #StaticStem] | 406 | 194 | 207 | 147 | 178 |
| GGAUAGGACAGAGGAUAUGGUAGUGAUGUUACCAAACUGGUUACUCUUGUCAGAAAACUGGCAUUUCCAGAAGGCUGUCCUAUCG [KL-XFMN-B11] | 599 | 75.1 | 92.2 | 84.9 | 104 |
| GGAUAGGACUGAGGAUAUGGUAGUGAUGUUACCAAACUGGUUAAACAUGUCAGAAAACUGGCAUGACCAGAAGGCGGUCCUAUCG [FmnBX 27 U10+G76] | 104 | 65.5 | 72.5 | 55.3 | 57.2 |
| GGAUAGGAUAGAGGAUAUGGUUUAUGCAGGAAUAACUUAUUGUGUAAAUCCAUAGGGAGUGAUGUUCCAGAAGGCUGUCCUAUCG [MatMod 14 - Jieux - Exclusion - FMN B] | 379 | 218 | 230 | 249 | 183 |
| GGAUCCACCAGUGAUGUUGGAGAAAACUCCAAGGAUAUGACGAAAGUCAGAAGGUGGUAGACUGGACAAAGUCCGGUCGGAUCCA [FmnA 23 #SwitchBubble #K4Early] | 719 | 113 | 126 | 68.1 | 160 |
| GGAUCCACCAGUGAUGUUGGAGAAAACUCGAAGGAUAUGACGAAAGUCAGAAGGUUGUAGACUGGACAAAGUCCGGUCGGAUCCA [FmnA 23 G30+U56] | 843 | 466 | 549 | 590 | 421 |
| GGAUCCACCAGUGAUGUUGGAGAAAACUCUAAGGAUAUGACGAAAGUCAGAAGGUGGUAGACUGGACAAAGUCCGGUCGGAUCCA [FmnA 23 U30] | 1210 | 177 | 397 | 262 | 347 |
| GGAUUGCCAGUGAUGUUGGCAUAAACUGAAGGAGCGCGUGAAAACGCAGGUAGGUCGCAGAACCUUGCCAACUGAUCGAAAGAUC [Ex Arginine A K4 29] | 123 | 138 | 121 | 122 | 106 |
| GGCACUUUUGCUUGGAACCGUCAAGCUCUAUAGGAUAUGCCGAAAGGCAGAAGGAUGGACCUACAGAGUGAUGUUCUGCGUGCCU | 393 | 140 | 583 | 134 | 218 |
| GGCAUAUAAAAUUGCCUAGAGAGAAAGGAUACCAGCACCCGGCGGUGCCCUUGGCAGCCUAGCCCAGUGAUGUUGGGUCCUCUAA [Esinvege] | 237 | 130 | 189 | 235 | 223 |
| GGCCGAAGAGAAGGAUAUGGUUUCACGCGUCGUUAGUGAUGUUAAUGCGCAUGCCUUAGUAUAGAGCCAGAAGGUCUGGUCAGAA [theeternabot_sameState_KL_FMN_B_34] | 170 | 199 | 219 | 210 | 213 |
| GGCCGGAAGGCGGCCGCCACUCAGUGAUGUUGUGUGAAAGAAAAGAAAAGAAGAAAGAAAAGAAAGAGGACCGGGCCAAACGGCC | 257 | 224 | 504 | 643 | 580 |
